These results are taken from article PMC4506539, “Crystallographic structure of a small molecule SIRT1 activator-enzyme complex” (Nature Communications, 2015).

For experiment [1], the target named is T1, full-length human SIRT1 (human, UniProt Q96EB6 1-747).
T1 construct: human SIRT1, full length, 747 amino acids; also called hSIRT1; wild-type hSIRT1
T1 sequence (looked up): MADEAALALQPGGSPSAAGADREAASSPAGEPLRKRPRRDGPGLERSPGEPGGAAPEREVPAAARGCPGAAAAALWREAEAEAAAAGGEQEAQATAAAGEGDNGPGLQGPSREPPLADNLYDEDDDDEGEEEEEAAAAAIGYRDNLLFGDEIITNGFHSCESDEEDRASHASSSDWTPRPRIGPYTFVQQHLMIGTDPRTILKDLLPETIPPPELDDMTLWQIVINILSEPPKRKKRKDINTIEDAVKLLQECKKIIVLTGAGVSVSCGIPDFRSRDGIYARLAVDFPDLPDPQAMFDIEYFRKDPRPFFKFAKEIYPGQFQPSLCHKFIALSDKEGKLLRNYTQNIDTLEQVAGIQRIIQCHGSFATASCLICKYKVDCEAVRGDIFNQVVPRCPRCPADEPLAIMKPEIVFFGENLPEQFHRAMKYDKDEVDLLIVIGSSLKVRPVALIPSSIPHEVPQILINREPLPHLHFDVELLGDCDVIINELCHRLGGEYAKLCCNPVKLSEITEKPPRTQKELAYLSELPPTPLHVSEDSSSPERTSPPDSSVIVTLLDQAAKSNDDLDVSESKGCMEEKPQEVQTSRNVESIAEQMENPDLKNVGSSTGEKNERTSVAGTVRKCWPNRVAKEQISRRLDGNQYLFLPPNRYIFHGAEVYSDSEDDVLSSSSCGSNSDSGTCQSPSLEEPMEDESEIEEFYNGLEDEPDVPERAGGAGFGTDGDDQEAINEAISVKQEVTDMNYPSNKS
The experiment is described as follows: HDX-MS; 0.77 mg/ml full-length SIRT1 ± 3.88 mM Ac-p53(W5) ± 192 μM STAC 1 in 1.9% DMSO, mixed 1:1 with 100 mM phosphate pH read 7.0 in D2O; 0 °C, 15-5,000 s. The conditions noted are these: both partners purified.

Experiment [2] concerns the target T2, hSIRT1 catalytic core, residues 229–516 (human, UniProt Q96EB6 229-516).
T2 sequence (looked up): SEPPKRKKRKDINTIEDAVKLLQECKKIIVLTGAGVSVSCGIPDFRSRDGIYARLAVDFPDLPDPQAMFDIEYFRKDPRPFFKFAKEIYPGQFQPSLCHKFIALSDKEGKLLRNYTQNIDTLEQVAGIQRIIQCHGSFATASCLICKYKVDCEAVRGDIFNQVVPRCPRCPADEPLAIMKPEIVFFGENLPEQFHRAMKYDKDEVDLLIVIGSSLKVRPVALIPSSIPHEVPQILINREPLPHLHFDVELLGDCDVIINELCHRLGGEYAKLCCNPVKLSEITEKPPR
Description: cell-based or functional assay.

B1: Ac-p53(W5) (Ac-RHKKAcW-NH2) (peptide)
peptide: Ac-RHKK(Ac)W-NH2
notes: p53-based peptide Ac-RHKKAcW-NH2; also called Trp-5mer; p53-derived peptide substrate; source: synthetic peptide, bought: Biopeptide
As to B1, the binding result in experiment [1] is “binds”. QYLFLPPNRYIFHGAEVYSDSEDDV (peptide, UniProt Q96EB6 641-665, looked up) [human C-terminal regulatory segment (CTR) peptide of SIRT1]: the “deacetylase activity of hSIRT1cd after addition of the CTR peptide, relative to full-length hSIRT1 (∼15% without the peptide)” value in experiment [2] was 80 % of the activity of full-length hSIRT1.
